In article PMC4972137 (The EMBO Journal, 2016):
Numbering of substitutions follows the chain as printed. Numbers in names are those of the source.

B1: NavMs sodium channel pore protein (wild-type pore of NavMs from M. marinus MC-1 with its complete C-terminal domain) (domain or fragment, Magnetococcus marinus MC-1)
chain: GVGSVAALLTVVFYIAAVMATNLYGATFPEWFGDLSKSLYTLFQVMTLESWSMGIVRPVMNVHPNAWVFFIPFIMLTTFTVLNLFIGIIVDAMAITKEQEEEAKTGHHQEPISQTLLHLGDRLDRIEKQLAQNNELLQRQQPQKK
B2: NavMs sodium channel pore protein, E178D selectivity filter mutant (domain or fragment, Magnetococcus marinus MC-1)
chain: B1 chain with E49D

Target: the molecule itself
Experiment: crystal structure; NavMs pore crystals grown in the presence of sodium ions; open conformation; four identical chains arranged in two half-tetramers, with the tetramers completed by crystal symmetry

| Protein | stoichiometry N |
| --- | --- |
| B1 | 4 |
| B2 | 4 |
